Data: PMC7156492

Molecular target: tetrameric Y-complex fragment Nup120-Nup145C-Sec13-Nup85 (NPC-II) (Myceliophthora thermophila)
Assay: mass photometry; mixture of NPC-I and NPC-II (NPC-III) diluted 10-fold from 482 nM immediately before measurement; 10 mM HEPES pH 7.5, 150 mM NaCl, 1 mM DTT, 0.1 mM EDTA; no cross-linker

Chain of tetrameric Y-complex fragment Nup120-Nup145C-Sec13-Nup85 (NPC-II) (Myceliophthora thermophila) (main, as listed by the source, chain 1 of 3): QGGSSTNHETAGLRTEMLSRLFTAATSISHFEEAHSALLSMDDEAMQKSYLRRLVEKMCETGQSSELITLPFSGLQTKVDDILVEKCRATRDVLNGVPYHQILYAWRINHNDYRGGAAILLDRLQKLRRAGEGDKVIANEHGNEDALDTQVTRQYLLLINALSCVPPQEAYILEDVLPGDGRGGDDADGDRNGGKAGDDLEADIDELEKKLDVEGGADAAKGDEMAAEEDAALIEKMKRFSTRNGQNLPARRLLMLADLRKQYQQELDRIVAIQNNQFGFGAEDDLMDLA
Chain of tetrameric Y-complex fragment Nup120-Nup145C-Sec13-Nup85 (NPC-II) (Myceliophthora thermophila) (partner, as listed by the source, chain 2 of 3): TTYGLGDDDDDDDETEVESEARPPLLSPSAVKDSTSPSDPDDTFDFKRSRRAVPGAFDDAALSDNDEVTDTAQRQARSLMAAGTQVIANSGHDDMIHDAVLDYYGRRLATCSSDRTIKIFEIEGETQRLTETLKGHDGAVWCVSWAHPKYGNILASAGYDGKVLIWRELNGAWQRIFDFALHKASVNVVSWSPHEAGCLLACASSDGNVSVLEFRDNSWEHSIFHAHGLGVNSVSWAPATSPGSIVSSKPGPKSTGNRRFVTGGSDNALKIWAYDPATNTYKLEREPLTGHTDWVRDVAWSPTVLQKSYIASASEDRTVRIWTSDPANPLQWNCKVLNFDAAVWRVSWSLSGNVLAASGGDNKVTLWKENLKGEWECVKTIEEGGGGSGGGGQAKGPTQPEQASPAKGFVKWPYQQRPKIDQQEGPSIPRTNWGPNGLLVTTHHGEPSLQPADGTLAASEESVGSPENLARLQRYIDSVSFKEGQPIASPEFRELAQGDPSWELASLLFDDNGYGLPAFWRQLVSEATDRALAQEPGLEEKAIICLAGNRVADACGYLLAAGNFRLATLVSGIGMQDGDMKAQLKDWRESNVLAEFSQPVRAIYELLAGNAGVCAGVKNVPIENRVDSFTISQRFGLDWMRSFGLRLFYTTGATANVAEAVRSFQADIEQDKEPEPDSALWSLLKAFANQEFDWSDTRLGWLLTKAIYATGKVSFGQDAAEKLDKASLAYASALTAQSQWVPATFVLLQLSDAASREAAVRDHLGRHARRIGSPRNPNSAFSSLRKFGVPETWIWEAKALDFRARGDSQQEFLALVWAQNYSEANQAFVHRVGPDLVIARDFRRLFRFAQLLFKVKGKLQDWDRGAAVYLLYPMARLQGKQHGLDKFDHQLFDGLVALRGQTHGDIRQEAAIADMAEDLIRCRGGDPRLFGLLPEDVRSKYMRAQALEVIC
Chain of tetrameric Y-complex fragment Nup120-Nup145C-Sec13-Nup85 (NPC-II) (Myceliophthora thermophila) (partner, as listed by the source, chain 3 of 3): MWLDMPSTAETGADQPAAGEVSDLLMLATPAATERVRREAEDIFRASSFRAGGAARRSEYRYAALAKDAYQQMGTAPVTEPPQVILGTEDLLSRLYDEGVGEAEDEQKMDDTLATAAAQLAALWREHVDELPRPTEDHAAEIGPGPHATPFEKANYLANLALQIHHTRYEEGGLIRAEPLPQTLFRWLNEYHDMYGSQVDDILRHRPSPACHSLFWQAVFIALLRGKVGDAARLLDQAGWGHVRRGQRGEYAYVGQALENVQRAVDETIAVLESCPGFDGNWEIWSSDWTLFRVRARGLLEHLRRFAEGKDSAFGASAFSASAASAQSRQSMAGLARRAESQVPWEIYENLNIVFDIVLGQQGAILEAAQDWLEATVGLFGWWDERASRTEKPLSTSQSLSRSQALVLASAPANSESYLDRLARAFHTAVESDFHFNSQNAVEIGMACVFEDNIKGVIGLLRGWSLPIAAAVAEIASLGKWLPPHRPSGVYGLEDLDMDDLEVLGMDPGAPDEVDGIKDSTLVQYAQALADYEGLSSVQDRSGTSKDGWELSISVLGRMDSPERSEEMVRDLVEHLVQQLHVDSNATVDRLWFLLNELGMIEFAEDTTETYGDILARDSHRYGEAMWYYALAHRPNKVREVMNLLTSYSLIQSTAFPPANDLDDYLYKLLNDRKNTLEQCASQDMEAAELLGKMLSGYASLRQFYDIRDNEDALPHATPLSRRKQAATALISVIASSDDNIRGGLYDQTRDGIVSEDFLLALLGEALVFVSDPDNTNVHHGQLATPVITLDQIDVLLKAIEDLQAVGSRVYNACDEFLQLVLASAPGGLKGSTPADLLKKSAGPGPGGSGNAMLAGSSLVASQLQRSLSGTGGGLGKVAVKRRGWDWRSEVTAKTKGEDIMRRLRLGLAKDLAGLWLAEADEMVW

Substance: tetrameric Nup82-Nup145N-Nup159-Nsp1 complex (NPC-I)
- stoichiometry N: 1
